This note sets out measurements from article doi:10.1101/343640.

By stoichiometry N is commonly meant a count of units in the complex or per binding partner.

The target in this assay is IMCC25003 KatG (bifunctional catalase-peroxidase of strain IMCC25003) ('Ca. Planktophila rubra' IMCC25003 (acI-A1 tribe, freshwater Actinobacteria)). The assay can be described thus: SEC.

With “IMCC25003 KatG (bifunctional catalase-peroxidase of strain IMCC25003) (enzyme)”, the stoichiometry N is 2.
